The values below come from paper PMC12871931, “The importin‐alpha superfamily engages in ethylene signaling by shuttling [sequence] INSENSITIVE 2 from the endoplasmic reticulum to the nucleus” (The Febs Journal, 2025).

One experiment deals with EIN2C^479–1294. Nature of the experiment: In planta FLIM‐FRET, EIN2C^479–1294‐CER donor, IMPα‐YFP acceptors. Format: cell-based, Arabidopsis thaliana. The note with it: N. benthamiana epidermal leaf cells; for average fluorescence lifetime of the EIN2C^479‐1294‐CER donor: co‐expression, vs donor only, Kruskal‐Wallis and Dunn's test, 18–20 measurements. An excerpt: To further investigate the interaction between members of the IMPα superfamily and EIN2 in planta, we used in vivo fluorescence lifetime microscopy and Förster's resonance energy transfer (FLIM‐FRET). Accordingly, the C‐terminal part of EIN2 (EIN2C^479–1294) was fused to the fluorescent protein Cerulean (CER), serving as a donor, and the IMPα isoforms (IMPα1‐7) were fused to YELLOW FL[…] (YFP), serving as acceptors.
A modified version of a previously described procedure was used for the transient transformation of N. benthamiana. An overnight culture of agrobacteria was inoculated in DYT and incubated at 28°C one day before infiltration. Bacteria were then centrifuged at 4000 g and resuspended in infiltration medium (5% (w/v) Saccharose; 0.01% (w/v) MgSO4; 0.01% (w/v) Glucose; Acetosyringone 450 μM) to an OD600 of 0.4–0.8. Resuspended bacteria were kept on ice for 1–2 h prior to infiltration. For co‐infiltration, bacteria solutions were mixed in equal quantities, and Agrobacterium strain GV3101:p19 expressing the p19 silencing inhibitor was added to each mix. Infiltration of the bacteria solution was performed with a 1 mL syringe onto the abaxial side of 3‐ to 4‐week‐old plants. Plants were kept under continuous light before microscopy analysis. For ß‐estradiol inducible constructs, plants were sprayed on the abaxial side of infiltrated leaves with an estradiol solution (ß‐estradiol 20 μM; Tween‐20 0.1% (w/v)) prior to imaging.
Fluorescence lifetime imaging was performed using a protocol described previously. Fluorescence lifetime was measured at a Zeiss LSM 780 confocal microscope (40× water immersion objective, Zeiss C‐PlanApo, NA 1.2). For TCSPC, a PicoQuant Hydra Harp 400 (PicoQuant, Berlin, Germany) was used. Photon counting was performed with a picosecond resolution. Cerulean was excited with a 440 nm ([…], 32 MHz, PicoQuant, Berlin, Germany) pulsed polarized laser. Laser power at the objective lens was adjusted to ~2.2 μW in N. benthamiana experiments. […] Photons were detected in both donor and acceptor channels simultaneously with Tau‐SPADs (PicoQuant, Berlin, Germany). […] Internal response functions for each laser were determined by measuring the fluorescence decay of quenched Atto425 in saturated KI, using the same hardware settings as for the FRET pair of interest. Fluorescence lifetime images were acquired in the cytosol, ER, or nucleus in donor‐only samples and samples with IMPα1‐4 and IMPα7. […]
The fluorescence decays were fitted using a previously reported method with minor modifications.
The fluorescence decays of selected ROIs in the FLIM image were analyzed with the SymPhoTime FLIM analysis software (SymPhoTime 64, version 2.4; PicoQuant, Berlin, Germany). […]

Another experiment deals with ΔIBB_IMPα1 (Arabidopsis thaliana, UniProt Q96321). The format is binding. An excerpt: Next, we used biolayer interferometry (BLI) with an Octet K2 instrument (Fortè Bio, Dallas, USA) to substantiate and further delineate the binding interactions between the IMPα superfamily and the EIN2‐NLS motif. BLI measures slight changes in reflected light at a sensor surface upon the formation of molecular complexes. Specifically, it monitors interference patterns of white light, which are reflected from two different surfaces: an internal reference layer and a layer of biomolecules immobilized on a biosensor tip.
ΔIBB_IMPα1, sequence (Q96321 whole entry, stated change not applied, the tested form may be a part): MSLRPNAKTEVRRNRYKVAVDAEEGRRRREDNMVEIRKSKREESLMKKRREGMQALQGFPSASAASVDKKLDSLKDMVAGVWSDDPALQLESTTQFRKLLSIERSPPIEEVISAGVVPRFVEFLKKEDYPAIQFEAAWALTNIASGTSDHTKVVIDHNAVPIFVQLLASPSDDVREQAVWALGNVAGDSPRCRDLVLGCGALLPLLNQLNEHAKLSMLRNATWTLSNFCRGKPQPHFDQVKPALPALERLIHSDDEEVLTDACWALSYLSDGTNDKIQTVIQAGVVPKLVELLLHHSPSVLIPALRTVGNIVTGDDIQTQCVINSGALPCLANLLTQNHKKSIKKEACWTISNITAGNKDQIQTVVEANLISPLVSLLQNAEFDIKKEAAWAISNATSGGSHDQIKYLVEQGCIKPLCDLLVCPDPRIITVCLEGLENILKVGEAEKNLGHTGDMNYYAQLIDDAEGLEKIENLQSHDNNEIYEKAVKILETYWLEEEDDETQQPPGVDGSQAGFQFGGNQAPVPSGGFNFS
In these binding assays, IMPα1 lacking the IBB domain (ΔIBB_IMPα1) and IMPα4 were selected as representatives of the IMPα superfamily. Prior to their interaction studies with different EIN2 CEND‐NLS probes, both importins were biotinylated with the Biotin‐PEG4‐NHS ester Protein Labeling Kit from Jena Bioscience (Jena, Germany) and immobilized onto streptavidin‐coated biosensor tips (Fig. 5).
Curve fitting of the BLI sensorgrams was tested with different binding models. […] This model assumes analyte binding at two independent ligand sites at the IMPα immobilized on the biosensor surface. Furthermore, each ligand site binds the analyte independently and with a different rate constant. […]

B1: IMPα7‐YFP: A. thaliana IMPα7 fused to YFP, FRET acceptor (protein)
chain: MKGGETMSVRRSGYKAVVDGVGGRRRREDDMVEIRKAKREESLLKKRREALPHSPSADSLDQKLISCIWSDERDLLIEATTQIRTLLCGEMFNVRVEEVIQAGLVPRFVEFLTWDDSPQLQFEAAWALTNIASGTSENTEVVIDHGAVAILVRLLNSPYDVVREQVVWALGNISGDSPRCRDIVLGHAALPSLLLQLNHGAKLSMLVNAAWTLSNLCRGKPQPPFDQVSAALPALAQLIRLDDKELLAYTCWALVYLSDGSNEKIQAVIEANVCARLIGLSIHRSPSVITPALRTIGNIVTGNDSQTQHIIDLQALPCLVNLLRGSYNKTIRKEACWTVSNITAGCQSQIQAVFDADICPALVNLLQNSEGDVKKEAAWAICNAIAGGSYKQIMFLVKQECIKPLCDLLTCSDTQLVMVCLEALKKILKVGEVFSSRHAEGIYQCPQTNVNPHAQLIEEAEGLEKIEGLQSHENNDIYETAVKILETYWMEEEEEEDQEQQDMIYFPVDNFANMPTSSGTLSEMHCGP
modifications: left off: YFP, end not stated, kept
notes: A. thaliana IMPα7 fused to YFP, FRET acceptor
Take B1: the “average fluorescence lifetime of the EIN2C^479‐1294‐CER donor” value (“average fluorescence lifetime” for short) in the experiment on EIN2C^479–1294 was “significant reduction”.

B2: IMPα5: A. thaliana IMPα5 fused to YFP, FRET acceptor (protein)
chain: MSLRPSTKTEIRRIRYKVSVDAEEGRRRREDFLVEIRKSKRNENLMKKRRVKVLPPDYKLISNDPFESLLEIANMITGVFSDDPSLQLEYTTRFRVVLSFDRSPPTDNVIKSGVVPRFVEFLKKDDNPKLQFEAAWALTNIASGASEHTKVVIDHGVVPLFVQLLASPDDDVREQAIWGLGNVAGDSIQCRDFVLNSGAFIPLLHQLNNHATLSILRNATWTLSNFFRGKPSPPFDLVKHVLPVLKRLVYSDDEQVLIDACWALSNLSDASNENIQSVIEAGVVPRLVELLQHASPVVLVPALRCIGNIVSGNSQQTHCVINCGVLPVLADLLTQNHMRGIRREACWTISNITAGLEEQIQSVIDANLIPSLVNLAQHAEFDIKKEAIWAISNASVGGSPNQIKYLVEQNCIKALCDILVCPDLRIILVSLGGLEMILIAGEVDKNLRDVNCYSQMIEDAEGLEKIENLQHHGNNEIYEKAVKILQTYGLVEEDGRLVEEEDEGGDGCSHPEFQFDFSR
modifications: left off: His6, C-terminal, state not stated
notes: A. thaliana IMPα5 fused to YFP, FRET acceptor
As to B2, in the experiment on EIN2C^479–1294, the “average fluorescence lifetime” value was “only slightly, but not significantly reduced”. Besides, the FRET efficiency in the experiment on EIN2C^479–1294 (mean, EIN2C^479–1294‐CER donor / IMPα‐YFP acceptor) was 1%.

B3: GB1‐AtEIN2C^1215–1281: CEND construct containing a GB1‐tag to enhance solubility, produced recombinantly in E. coli (protein)
chain: {GB1 tag}-KGKCTTAVTLLDLIKDVEMAISCRKGRTGTAAGDVAFPKGKENLASVLKRYKRRLSNKPVGMNQDGP
modifications: not fully specified
notes: CEND construct containing a GB1‐tag to enhance solubility, produced recombinantly in E. coli
B3: the Hill coefficient (as a rule, a measure of the steepness of the concentration-response curve) in the experiment with ΔIBB_IMPα1 (BLI dose response, ΔIBB_IMPα1) stood at 0.94 ± 0.06. In the experiment with ΔIBB_IMPα1 (BLI, ΔIBB_IMPα1 biotinylated on streptavidin biosensor (15 μM in 100 mM Tris pH 7.0, 100 mM KCl, 0.01% Tween 20), room temperature, association 300 s, dissociation 300 s, 1:2 heterogeneous ligand model, n = 3, read-out: K d + SD), the Kd came out at 8.8 ± 1.1 µM.

B4: IMPα6‐YFP: A. thaliana IMPα6 fused to YFP, FRET acceptor (protein)
chain: MSYKPSAKTEVRRNRYKVSVDADEGRRRREDNMVEIRKNKREENLQKKRREGFNPSMASQPGQDFSSSLPTETRLENIQQMIAGVMSEDRDLQLEATASFRRLLSIERNPPINEVVQSGVVPHIVQFLSRDDFTQLQFEAAWALTNIASGTSENTRVIIDSGAVPLFVKLLSSASEEVREQAVWALGNVAGDSPKCRDHVLSCEAMMSLLAQFHEHSKLSMLRNATWTLSNFCRGKPQPAFEQTKAALPALERLLHSTDEEVLTDASWALSYLSDGTNEKIQTVIDAGVIPRLVQLLAHPSPSVLIPALRTIGNIVTGDDIQTQAVISSQALPGLLNLLKNTYKKSIKKEACWTISNITAGNTSQIQEVFQAGIIRPLINLLEIGEFEIKKEAVWAISNATSGGNHDQIKFLVSQGCIRPLCDLLPCPDPRVVTVTLEGLENILKVGEAEKNLGNTGNDNLYAQMIEDADGLDKIENLQSHDNNEIYEKAVKILESYWAADDEEEDIGGVDAPENVQSSGFQFGNQSGNAPTGGFNFG
modifications: left off: YFP, end not stated, kept
notes: A. thaliana IMPα6 fused to YFP, FRET acceptor
As for B4, the “average fluorescence lifetime” value with EIN2C^479–1294 is “significant reduction”.
